Reference: article PMC8435816 (Synthetic and Systems Biotechnology, 2021)

Target: the molecule itself
Assay: negative-stain transmission electron microscopy

B1: T. maritima encapsulin with His6 insert with Strep-tag (TmEnc-STII) (natural protein, Thermotoga maritima)
chain: MEFLKRSFAPLTEKQWQEIDNRAREIFKTQLYGRKFVDVEGPGGGGGGHHHHHHGGGGGYGWEYAAHPLGEVEVLSDENEVVKWGLRKSLPLIELRATFTLDLWELDNLERGKPNVDLSSLEETVRKVAEFEDEVIFRGCEKSGVKGLLSFEERKIECGSTPKDLLEAIVRALSIFSKDGIEGPYTLVINTDRWINFLKEEAGHYPLEKRVEECLRGGKIITTPRIEDALVVSERGGDFKLILGQDLSIGYEDREKDAVRLFITETFTFQVVNPEALILLKF
B1: binds.
